Kd data for one molecule are collected here from publication PMC3553500 (2013).

The term Kd denotes the free concentration of one partner at which half of the binding sites on the other are occupied at equilibrium, for simple one-to-one binding. High values mean a looser complex, low ones a tighter complex.

The assay deals with GAPDH (Homo sapiens, UniProt P04406). Nature of the assay: ELISA. For orientation: ELISA stands for enzyme-linked immunosorbent assay.
Sequence of GAPDH (P04406 2-335): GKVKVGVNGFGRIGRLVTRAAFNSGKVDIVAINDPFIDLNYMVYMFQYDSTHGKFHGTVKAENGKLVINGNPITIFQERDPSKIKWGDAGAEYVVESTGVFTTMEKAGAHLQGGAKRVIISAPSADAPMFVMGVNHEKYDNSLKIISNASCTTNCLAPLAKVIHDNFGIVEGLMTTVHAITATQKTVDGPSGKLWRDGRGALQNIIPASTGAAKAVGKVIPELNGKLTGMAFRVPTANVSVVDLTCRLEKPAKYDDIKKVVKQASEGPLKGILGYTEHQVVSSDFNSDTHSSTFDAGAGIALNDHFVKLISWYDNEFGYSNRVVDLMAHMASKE

B1: TRAF2 (protein)
chain: AAASVTPPGSLELLQPGFSKTLLGTKLEAKYLCSACRNVLRRPFQAQCGHRYCSFCLASILSSGPQNCAACVHEGIYEEGISILESSSAFPDNAARREVESLPAVCPSDGCTWKGTLKEYESCHEGRCPLMLTECPACKGLVRLGEKERHLEHECPERSLSCRHCRAPCCGADVKAHHEVCPKFPLTCDGCGKKKIPREKFQDHVKTCGKCRVPCRFHAIGCLETVEGEKQQEHEVQWLREHLAMLLSSVLEAKPLLGDQSHAGSELLQRCESLEKKTATFENIVCVLNREVERVAMTAEACSRQHRLDQDKIEALSSKVQQLERSIGLKDLAMADLEQKVLEMEASTYDGVFIWKISDFARKRQEAVAGRIPAIFSPAFYTSRYGYKMCLRIYLNGDGTGRGTHLSLFFVVMKGPNDALLRWPFNQKVTLMLLDQNNREHVIDAFRPDVTSSSFQRPVNDMNIASGCPLFCPVSKMEAKNSYVRDDAIFIKAIVDLTGL
As to B1, binding was put at a Kd of 96 µM.
